Experimental data from publication PMC3066073.
Like-named read-outs stand apart in the source and are kept apart here.

B1: PKC-theta Wt probe III (dsDNA)
DNA 1: ATGAGCCACCGCACCTGGCC
DNA 2: GGCCAGGTGCGGTGGCTCAT
B2: PKC-theta Wt probe I (dsDNA)
DNA 1: CAAATGCCTGGGGTAGGTCA
DNA 2: TGACCTACCCCAGGCATTTG

Experiments:
RUNX1 (recombinant) [1] = target: T1, RUNX1 (recombinant) (UniProt Q01196 1-453); assay: EMSA, supershift
RUNX1 (recombinant) [2] = target: T1, RUNX1 (recombinant); assay: EMSA, supershift; remark: listed apart in the source

T1 sequence (Q01196 whole entry): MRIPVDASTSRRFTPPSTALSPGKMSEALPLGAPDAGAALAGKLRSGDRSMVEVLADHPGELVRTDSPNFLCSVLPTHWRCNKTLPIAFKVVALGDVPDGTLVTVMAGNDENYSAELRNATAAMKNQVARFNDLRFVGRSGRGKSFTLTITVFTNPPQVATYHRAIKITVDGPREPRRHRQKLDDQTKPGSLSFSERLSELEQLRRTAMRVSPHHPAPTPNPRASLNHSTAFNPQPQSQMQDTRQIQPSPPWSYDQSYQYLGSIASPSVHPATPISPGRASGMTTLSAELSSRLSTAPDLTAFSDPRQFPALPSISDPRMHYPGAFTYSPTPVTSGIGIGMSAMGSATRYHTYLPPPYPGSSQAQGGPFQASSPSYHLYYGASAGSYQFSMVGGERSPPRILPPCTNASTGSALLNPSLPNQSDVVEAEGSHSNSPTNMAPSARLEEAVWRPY

| Binder | binding result (RUNX1 (recombinant) [1]) | binding result (RUNX1 (recombinant) [2]) |
| --- | --- | --- |
| B1 | binds |  |
| B2 |  | binds |
